Experimental findings from PMC10319324 are described below.

In general, stoichiometry N refers to a count of units in the complex or per binding partner.

The target of assay [1] is bovine 20S proteasome (bovine) (UniProt Q2YDE4).
Assay [2] deals with T1, recombinant wildtype human PI31 (Proteasome Inhibitor of 31,000 Da) (human), Q92530.
T1 chain: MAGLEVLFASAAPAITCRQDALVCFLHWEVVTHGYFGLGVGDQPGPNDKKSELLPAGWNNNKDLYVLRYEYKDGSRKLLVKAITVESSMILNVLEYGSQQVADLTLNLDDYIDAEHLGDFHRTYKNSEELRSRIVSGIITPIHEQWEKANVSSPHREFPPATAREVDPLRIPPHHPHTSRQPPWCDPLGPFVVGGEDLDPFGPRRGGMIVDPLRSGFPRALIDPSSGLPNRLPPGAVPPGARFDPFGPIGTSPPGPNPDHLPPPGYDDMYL
As to the kind of experiment: mass photometry; monomer to dimer; His-PI31 diluted to 40 nM total monomer in PBS, recorded immediately after mixing (TwoMP, Refeyn); peaks at 36 to 37 and 56 to 59 kDa. Particulars: remark: other sources report otherwise.

B1: human PI31 D197A point mutant (natural protein)
chain: MAGLEVLFASAAPAITCRQDALVCFLHWEVVTHGYFGLGVGDQPGPNDKKSELLPAGWNNNKDLYVLRYEYKDGSRKLLVKAITVESSMILNVLEYGSQQVADLTLNLDDYIDAEHLGDFHRTYKNSEELRSRIVSGIITPIHEQWEKANVSSPHREFPPATAREVDPLRIPPHHPHTSRQPPWCDPLGPFVVGGEALDPFGPRRGGMIVDPLRSGFPRALIDPSSGLPNRLPPGAVPPGARFDPFGPIGTSPPGPNPDHLPPPGYDDMYL
Turning to B1, in assay [1], the inhibition of β5-specific peptide hydrolysis by 20S (143 nM 20S, 1.4 μM PI31) (times less well than wildtype hPI31) is 3.

B2: recombinant wildtype human PI31 (Proteasome Inhibitor of 31,000 Da), Q92530 1-271 (natural protein)
chain: MAGLEVLFASAAPAITCRQDALVCFLHWEVVTHGYFGLGVGDQPGPNDKKSELLPAGWNNNKDLYVLRYEYKDGSRKLLVKAITVESSMILNVLEYGSQQVADLTLNLDDYIDAEHLGDFHRTYKNSEELRSRIVSGIITPIHEQWEKANVSSPHREFPPATAREVDPLRIPPHHPHTSRQPPWCDPLGPFVVGGEDLDPFGPRRGGMIVDPLRSGFPRALIDPSSGLPNRLPPGAVPPGARFDPFGPIGTSPPGPNPDHLPPPGYDDMYL
Turning to B2, in assay [2], the [monomer]/[M]T ratio stood at 0.32, the dimer counts (mass photometry) came to 2060 counts, the monomer counts (mass photometry) stood at 2180 counts and the stoichiometry N turned out to be 2.
